From patent publication US11015206B2, “Compositions and methods comprising sequences having hydroxyphenylpyruvate dioxygenase (HPPD) activity” (PIONEER HI-BRED INTERNATIONAL, INC., priority 2014, dated 2021)
Blank lines part the entries; values can stand above or below the molecule they belong to.

Tests used:
Assay type in all cases: biochemical, Z. mays
[1] = test system: 4-hydroxyphenylpyruvate dioxygenase (HPPD); experiment: HPPD activity coupled assay with HGD; substrate saturation kinetic parameters (kcat, KM)
Procedure, shortened: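 Coupled continuous assay: His-tagged HPPD (5 to 240 nM, E. coli-expressed, Ni-NTA-purified) with 50 nM P. aeruginosa HGD in 25 mM Hepes pH 7, 2 mM ascorbate, 10 μM FeSO4; maleylacetoacetate followed at 320 nm. KM and Vmax from Lineweaver-Burke fits over 3.33–100 μM HPP.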

[2] = test system: 4-hydroxyphenylpyruvate dioxygenase (HPPD); experiment: ON rate ratio: HPPD reaction rate with vs without inhibitor in the 70 to 90 second interval
Procedure, shortened: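 Time courses of HPPD reactions, 60 or 120 nM enzyme with 100 μM HPP substrate, run with and without 4 μM inhibitor (e.g. mesotrione, tembotrione). Value is the rate with inhibitor over rate without, taken over 70–90 s; higher ratio reflects slower kON.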

[3] = test system: 4-hydroxyphenylpyruvate dioxygenase (HPPD); experiment: OFF rate ratio: release of inhibitor from pre-formed enzyme-inhibitor complex
Procedure, shortened: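 HPPD (7.2 μM) pre-incubated 1 h at RT with inhibitor (8 μM), then diluted into 25 mM Hepes pH 7, 2 mM ascorbate, 10 μM FeSO4, 100 μM HPP, 50 nM HGD; A320 followed 12 min. Ratio = steady-state rate with inhibitor over initial rate of inhibitor-free enzyme.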

[4] = test system: 4-hydroxyphenylpyruvate dioxygenase (HPPD); experiment: Insensitivity parameter (ON × OFF) and trait fitness (ON × OFF × kcat/KM or × kcat); set-up: key to ON × OFF / Insensitivity, mesotrione, ON × OFF / Insensitivity, tembotrione, ON × OFF / Insensitivity, topramezone, ON × OFF / Insensitivity, sulcotrione, ON × OFF / Insensitivity, isoxaflutole (DKN), ON × OFF: insensitivity = ON rate ratio × OFF rate ratio (surrogate for KD)
Procedure, shortened: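 Calculated, not measured directly: ON rate ratio × OFF rate ratio gives an insensitivity parameter serving as a KD surrogate.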

[5] = test system: 4-hydroxyphenylpyruvate dioxygenase (HPPD); experiment: Estimate of kcat from initial rate at saturating hydroxyphenylpyruvate without inhibitor (ON rate ratio assay)
Procedure, shortened: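 Reactions used 60 or 120 nM HPPD and saturating 100 μM hydroxyphenylpyruvate without inhibitor. kcat was estimated from the initial rate at the known enzyme concentration.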

[6] = Table 5, tembotrione, fold vs maize wild type HPPD
[7] = substrate saturation kinetic analysis
[8] = Table 7, tembotrione, combinatorial variants

- ON ratio (parameters with tembotrione) ([2]; Table 5, tembotrione): 0.78
- OFF ratio (parameters with tembotrione) ([3]; Table 5, tembotrione): 0.13
- Insensitivity parameter, ON × OFF ([4]; DKN (diketonitrile form of isoxaflutole)): 0.22
- Insensitivity parameter, ON × OFF ([4]; Mesotrione, Table 6): 0.42
- Insensitivity parameter, ON × OFF ([4]; Sulcotrione): 0.51
- ON × OFF, fold vs wt [4, 6]: 19.7
- ON × OFF (parameters with tembotrione) ([4]; Table 5, tembotrione, insensitivity parameter): 0.10
- Insensitivity parameter, ON × OFF ([4]; Tembotrione): 0.17
- Insensitivity parameter, ON × OFF ([4]; Topramezon): 0.23
B1: 342V: single substitution 342V in SEQ ID NO:2 (protein)
chain: MGPTPTATAAGAAVAAASAAEQAAFRLVGHRNFVRFNPRSDRFQTLAFHHVELWCADAASAAGRFSFALGVPLAARSDLSTGNSAHASLLLRSGSLSLLFTAPYAHGADAATAALPSFSAAAARRFAADHGLAVRAVALRVADAEDAFRASVAAGARPAFGPVDLGRGFRLAEVELYGDVVLRYVSYPDGAAGEPFLPGFEGVASPGAADYGLSRFDHIVGNVPELAPAAAYMAGFTGFHEFAEFTTEDVGTTESGLNSMALANNSENVLLPLNEPVHGTKRRSQIQTFLDHHGGPGVQHIALASDDVLRTLREMRARSAMGGFEFLPPPLSDYYDGVRRCVGDVLTEAQINECQELGVMVDRDDQGVLLQIFTKPVGDRPTFFLEIIQRIGCMEKDEKGQEYQKGGCGGFGKGNFGQLFKSIEDYEKSLEAKQAAAAATAQGS
modifications: Zea mays variant form created by artificial means.
- Km ([1]; Table 6): 2590 nM
- kcat ([1]; Table 6, single substitutions in SEQ ID NO:2): 54.2 min⁻¹
- ON × OFF × kcat, Value ([4]; Table 5, tembotrione): 4.08
- ON × OFF × kcat, Fold vs wt [4, 6]: 3.82
- kcat ([5]; Table 5, single substitutions in Round 7 variant 9070 (SEQ ID NO:2), estimate from initial rate at saturating hydroxyphenylpyruvate without inhibitor): 40.6 min⁻¹

- ON rate ratio [2, 8]: 0.700
- Insensitivity, mesotrione, Rate ratio ON ([2]; inhibitor mesotrione): 0.64
- Insensitivity, tembotrione, Rate ratio ON ([2]; inhibitor tembotrione): 0.70
- OFF rate ratio [3, 8]: 0.395
- Insensitivity, mesotrione, Rate ratio OFF ([3]; inhibitor mesotrione): 1.00
- Insensitivity, tembotrione, Rate ratio OFF ([3]; inhibitor tembotrione): 0.39
- ON × OFF ([4]; Megatable 3, shuffled variants): 0.276
- ON × OFF [4, 8]: 0.276
- Insensitivity, mesotrione, ON × OFF ([4]; inhibitor mesotrione): 0.64
- Insensitivity, mesotrione, Trait Fitness ([4]; inhibitor mesotrione): 8.7
- Insensitivity, tembotrione, ON × OFF ([4]; inhibitor tembotrione): 0.28
- Insensitivity, tembotrione, Trait fitness ([4]; inhibitor tembotrione): 3.74
B2: P056028-F-05 (protein)
chain: MGPTPTATAAGAAVAAASAAEQAAFRLVGHRNFVRFNPRSDRFQTLAFHHVELWCADAASAAGRFSFALGVPLAARSDLSTGNSAHASLLLRSGSLSLLFTAPYAHGADAATAALPSFSAAAARRFAADHGLAVRAVALRVADAEDAFRASVAAGARPAFGPVDLGRGFRLAEVELYGDVVLRYVSYPDGGAGEPFLPGFEGVASPGAADYGLSRFDHIVGNVPELAPAAAYMAGFTGFHEFAEFTTEDVGTTESGLNSMALANNSENVLLPLNEPVHGTKRRSQIQTFLDHHGGPGVQHIALASDDVLRTLREMRARSAMGGFEFLPPPLSDYYDGVRRCAGDVLTEAQINECQELGVMVDRDDEGVLLQIFTKPVGDRPTFFLEIIQRIGCMEKDEKGQEYQKGGCGGFGKGNFGQLFKSIEDYEKSLEAKQAAAAATAQGS
modifications: Zea mays variant form created by artificial means.
- Km [1, 7]: 2390 nM
- kcat [1, 7]: 32.3 min⁻¹
- ON × OFF × kcat ([4]; Megatable 3, shuffled variants): 7.57
- ON × OFF × kcat [4, 8]: 7.57
- kcat ([5]; Megatable 3, shuffled variants): 27.4 min⁻¹
- kcat ([5]; Table 7, combinatorial variants): 27.4 min⁻¹
